Key:
[1] = target: T1, trADAMTS-13^R312A (truncated ADAMTS-13 mutant, Arg312 to Ala)
T1 chain: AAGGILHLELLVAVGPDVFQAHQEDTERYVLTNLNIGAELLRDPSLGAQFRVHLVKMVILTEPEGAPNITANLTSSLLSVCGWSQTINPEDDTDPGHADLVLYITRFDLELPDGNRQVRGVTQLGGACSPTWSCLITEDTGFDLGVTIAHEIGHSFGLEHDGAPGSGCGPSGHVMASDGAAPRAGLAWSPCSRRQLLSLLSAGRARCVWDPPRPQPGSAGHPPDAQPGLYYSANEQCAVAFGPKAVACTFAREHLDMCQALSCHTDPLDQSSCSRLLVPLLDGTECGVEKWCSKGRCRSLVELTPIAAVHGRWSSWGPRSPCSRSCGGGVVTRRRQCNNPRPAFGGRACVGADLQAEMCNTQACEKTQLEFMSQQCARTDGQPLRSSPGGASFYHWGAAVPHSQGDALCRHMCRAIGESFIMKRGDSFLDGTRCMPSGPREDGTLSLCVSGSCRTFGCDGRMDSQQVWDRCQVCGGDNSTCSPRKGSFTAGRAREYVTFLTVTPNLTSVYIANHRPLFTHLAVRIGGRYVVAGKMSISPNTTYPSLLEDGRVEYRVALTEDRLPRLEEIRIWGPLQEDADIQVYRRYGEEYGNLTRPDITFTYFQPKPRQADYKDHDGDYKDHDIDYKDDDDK

[2] = target: T2, trADAMTS-13^V313D (truncated ADAMTS-13 mutant, Val313 to Asp)
T2 chain: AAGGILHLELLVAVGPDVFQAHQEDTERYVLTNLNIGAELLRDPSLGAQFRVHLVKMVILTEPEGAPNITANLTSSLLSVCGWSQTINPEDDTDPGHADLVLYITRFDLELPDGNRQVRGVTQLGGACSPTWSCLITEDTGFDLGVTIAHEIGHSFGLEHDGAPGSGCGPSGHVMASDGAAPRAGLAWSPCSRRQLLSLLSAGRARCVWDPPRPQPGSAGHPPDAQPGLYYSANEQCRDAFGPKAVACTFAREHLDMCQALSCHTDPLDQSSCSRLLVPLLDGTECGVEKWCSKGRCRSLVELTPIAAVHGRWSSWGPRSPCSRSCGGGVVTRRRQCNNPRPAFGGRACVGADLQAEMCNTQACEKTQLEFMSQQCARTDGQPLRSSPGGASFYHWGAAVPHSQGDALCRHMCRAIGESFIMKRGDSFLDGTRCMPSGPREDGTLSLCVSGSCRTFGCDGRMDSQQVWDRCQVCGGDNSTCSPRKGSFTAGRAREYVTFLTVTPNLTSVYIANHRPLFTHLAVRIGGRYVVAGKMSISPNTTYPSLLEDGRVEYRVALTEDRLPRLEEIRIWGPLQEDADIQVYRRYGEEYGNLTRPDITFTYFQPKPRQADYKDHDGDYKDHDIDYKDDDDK

[3] = target: T3, truncated recombinant human ADAMTS-13 variant (MDTCS), trADAMTS-13 WT
T3 chain: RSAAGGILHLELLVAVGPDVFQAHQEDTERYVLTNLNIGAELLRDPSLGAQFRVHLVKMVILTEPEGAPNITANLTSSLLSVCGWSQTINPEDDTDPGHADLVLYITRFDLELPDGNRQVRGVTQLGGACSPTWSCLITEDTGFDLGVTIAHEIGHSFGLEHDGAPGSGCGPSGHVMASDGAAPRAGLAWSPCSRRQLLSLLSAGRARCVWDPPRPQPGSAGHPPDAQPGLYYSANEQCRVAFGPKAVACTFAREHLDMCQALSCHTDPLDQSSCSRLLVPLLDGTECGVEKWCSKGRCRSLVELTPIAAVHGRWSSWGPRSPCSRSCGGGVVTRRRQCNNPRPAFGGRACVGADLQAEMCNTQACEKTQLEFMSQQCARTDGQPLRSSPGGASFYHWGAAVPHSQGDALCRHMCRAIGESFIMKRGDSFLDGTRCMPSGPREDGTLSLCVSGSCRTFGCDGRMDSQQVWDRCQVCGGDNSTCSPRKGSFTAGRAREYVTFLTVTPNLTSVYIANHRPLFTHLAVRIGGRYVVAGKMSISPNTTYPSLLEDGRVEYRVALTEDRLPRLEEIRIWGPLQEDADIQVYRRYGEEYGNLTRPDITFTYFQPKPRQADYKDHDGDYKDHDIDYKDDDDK

B1: tissue plasminogen activator (tPA) (protein)
chain: SYQVICRDEKTQMIYQQHQSWLRPVLRSNRVEYCWCNSGRAQCHSVPVKSCSEPRCFNGGTCQQALYFSDFVCQCPEGFAGKCCEIGNSDCYFGNGSAYRGTHSLTESGASCLPWNSMILIGKVYTAQNPSAQALGLGKHNYCRNPDGDAKPWCHVLKNRRLTWEYCDVPSCSTCGLRQYSQPQFRIKGGLFADIASHPWQAAIFAKHRRSPGERFLCGGILISSCWILSAAHCFQERFPPHHLTVILGRTYRVVPGEEEQKFEVEKYIVHKEFDDDTYDNDIALLQLKSDSSRCAQESSVVRTVCLPPADLQLPDWTECELSGYGKHEALSPFYSERLKEAHVRLYPSSRCTSQHLLNRTVTDNMLCAGDTRSGGPQANLHDACQGDSGGPLVCLNDGRMTLVGIISWGLGCGQKDVPGVYTKVTNYLDWIRDNMRP
- residual proteolytic activity on vWF after 6 hours with or without tPA [1]: tPA inhibited the proteolytic activity of trADAMTS-13^R312A and trADAMTS-13^V313A variants on vWF (FIG. 8)
- residual proteolytic activity on vWF after 6 hours with or without tPA [2]: trADAMTS-13^R312K and trADAMTS-13^V313D variants were resistant to inactivation by tPA
- ADAMTS-13 activity with or without preincubation with tPA (technozym kit) [3]: the activity of both trADAMTS-13 and ADAMTS-13 WT was reduced in the presence of tPA (FIG. 4B)
- activity of trADAMTS-13 WT after 4 hr in soluble fibrin (2 uM) or PBS, without or with tPA (100 nM) [3]: The addition of soluble fibrin reversed the tPA-mediated reduction in ADAMTS-13 activity (FIG. 14A)
- cleavage by tPA (Western blot) and residual proteolytic activity on vWF over time [3]: trADAMTS-13 was proteolyzed completely (FIG. 7A) and lost its catalytic activity (FIG. 7B)
- cleavage of trADAMTS-13 (500 nM) by tPA (100 nM), Western blot [3]: in the presence of tPA, it is cleaved (FIG. 4C)

— patent US20230295597
